Data: publication doi:10.1101/2024.11.05.622117 (bioRxiv, 2024)

Target: the molecule itself

## IRIDIRIDIRG [Peptide IRIDIRIDIRG (SID)]
  binding result: binds
